From paper PMC2938230 (Nucleic Acids Research, 2010) come the findings set out here.

The experiment deals with T1, GAL4 DBD-hRARγ (human, UniProt P13631 1-454).
T1 sequence (looked up): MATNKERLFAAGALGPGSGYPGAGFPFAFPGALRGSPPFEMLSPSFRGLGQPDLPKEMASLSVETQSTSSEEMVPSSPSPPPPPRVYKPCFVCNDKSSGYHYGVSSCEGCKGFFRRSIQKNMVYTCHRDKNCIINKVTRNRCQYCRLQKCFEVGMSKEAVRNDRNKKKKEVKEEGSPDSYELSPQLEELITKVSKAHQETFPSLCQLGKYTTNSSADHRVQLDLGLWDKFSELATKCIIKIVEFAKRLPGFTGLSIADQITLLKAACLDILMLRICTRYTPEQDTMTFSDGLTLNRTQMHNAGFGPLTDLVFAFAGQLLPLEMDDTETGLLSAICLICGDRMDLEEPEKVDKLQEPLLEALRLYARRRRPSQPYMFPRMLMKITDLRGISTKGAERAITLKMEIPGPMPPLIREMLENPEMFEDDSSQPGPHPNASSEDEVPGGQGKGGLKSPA
The experiment in a line: two-hybrid.

B1: GAL4 AD-hADA3 (pACT2) (natural protein, human, UniProt O75528-1 1-432, looked up)
chain: MSELKDCPLQFHDFKSVDHLKVCPRYTAVLARSEDDGIGIEELDTLQLELETLLSSASRRLRVLEAETQILTDWQDKKGDRRFLKLGRDHELGAPPKHGKPKKQKLEGKAGHGPGPGPGRPKSKNLQPKIQEYEFTDDPIDVPRIPKNDAPNRFWASVEPYCADITSEEVRTLEELLKPPEDEAEHYKIPPLGKHYSQRWAQEDLLEEQKDGARAAAVADKKKGLMGPLTELDTKDVDALLKKSEAQHEQPEDGCPFGALTQRLLQALVEENIISPMEDSPIPDMSGKESGADGASTSPRNQNKPFSVPHTKSLESRIKEELIAQGLLESEDRPAEDSEDEVLAELRKRQAELKALSAHNRTKKHDLLRLAKEEVSRQELRQRVRMADNEVMDAFRKIMAARQKKRTPTKKEKDQAWKTLKERESILKLLDG
On to B1, for which the “fold interaction relative to RARα” value amounted to 3 fold.
